Measurements from patent US20030084466A1, “System and method for controlling male fertility” (priority 2000, published 2003).

Tested on: Akt
Test: SCF-induced Akt activation (Akt in vitro kinase assay, histone H2B substrate) in primary bone marrow-derived mast cells
Assay type: cell-based, mouse

B1: SCF: murine stem cell factor (R & D Systems, Inc.), bivalent ligand of the Kit receptor (protein)
chain: KEICGNPVTDNVKDITKLVANLPNDYMITLNYVAGMDVLPSHCWLRDMVIQLSLSLTTLLDKFSNISEGLSNYSIIDKLGKIVDDLVLCMEENAPKNIKESPKRPETRSFTPEEFFSIFNRSIDAFKDFMVASDTSDCVLSSTLGPEKDSRVSVTKPFMLPPVA
- Akt activation (+/+ and loxP/loxP mast cells, 100 ng/ml murine SCF, 8 minutes, 37° C.): 5 fold
- Akt activation relative to wild type levels (Y719F/Y719F mast cells, SCF stimulation): 12%
